This note sets out measurements from patent CN116813758A (INST MICROBIOLOGY CAS, dated 2023).

This assay deals with SARS-CoV-2原始毒株的RBD蛋白 (SARS-CoV-2 RBD-his) (SARS-CoV-2原始毒株, UniProt P0DTC2 319-541).

B1: 单链纳米抗体S43 (S43-his蛋白) (VHH)
VHH: QVQLQESGGGLVQPGGSLRLTCAPSGFTLDYYAIGWFRQAPGKEREGVSCISSNNSTYYADSVKGRFTISRDNAKNTVYLQMNSLKPEDTAVYYCAAEPDYSGVYYYTCGWTDFGSWGQGTQVTVSS
For the molecule B1, the Kd is 120 pM. In other words, the sub-nanomolar range.
